Data set [1] has as its system HeLa Kyoto. The experiment in a line: melting temperature (median over replicates), in situ; higher = more thermally stable.
In data set [2] the test system is HeLa Kyoto. The data set can be described thus: thermal stability score vs G1/S (z-score of summed log2 fold changes over temperatures); higher = more thermally stable than in G1/S.
The subject of data set [3] is HeLa Kyoto. The experiment in a line: solubility change mitosis vs G1/S (difference of NP-40 vs SDS log2 ratios) (log2 ratio difference); higher = more soluble in mitosis.
The test system of data set [4] is HeLa Kyoto. The experiment in a line: solubility in G1/S (NP-40 vs SDS abundance) (log2 ratio); higher = more soluble. Conditions: cell cycle stage: G1/S.
Where [5] appears, read: cell cycle stage: early G1 (4.5 h after nocodazole release).
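For melting temperature (median over replicates), in situ in this document: HeLa Kyoto cells synchronized by double thymidine or nocodazole block, proteins quantified by TMT10plex mass spectrometry, three independent biological replicates.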
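For solubility change mitosis vs G1/S (difference of NP-40 vs SDS log2 ratios) in this document: synchronized HeLa Kyoto cells (double thymidine block for G1/S, nocodazole release for mitosis), protein amounts in NP-40 versus SDS lysates quantified by mass spectrometry, three biological replicates.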
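For solubility in G1/S (NP-40 vs SDS abundance) in this document: HeLa Kyoto cells arrested at G1/S by double thymidine block, proteins quantified by TMT10plex mass spectrometry in mild NP-40 versus SDS extracts, three biological replicates.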
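For thermal stability score vs G1/S (z-score of summed log2 fold changes over temperatures) in this document: synchronized HeLa Kyoto cells, proteins quantified by TMT10plex mass spectrometry, three biological replicates, mitosis taken 0.5 h after nocodazole release, G1/S directly after double thymidine block.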

STK38L, sequence (chain, as listed by the source): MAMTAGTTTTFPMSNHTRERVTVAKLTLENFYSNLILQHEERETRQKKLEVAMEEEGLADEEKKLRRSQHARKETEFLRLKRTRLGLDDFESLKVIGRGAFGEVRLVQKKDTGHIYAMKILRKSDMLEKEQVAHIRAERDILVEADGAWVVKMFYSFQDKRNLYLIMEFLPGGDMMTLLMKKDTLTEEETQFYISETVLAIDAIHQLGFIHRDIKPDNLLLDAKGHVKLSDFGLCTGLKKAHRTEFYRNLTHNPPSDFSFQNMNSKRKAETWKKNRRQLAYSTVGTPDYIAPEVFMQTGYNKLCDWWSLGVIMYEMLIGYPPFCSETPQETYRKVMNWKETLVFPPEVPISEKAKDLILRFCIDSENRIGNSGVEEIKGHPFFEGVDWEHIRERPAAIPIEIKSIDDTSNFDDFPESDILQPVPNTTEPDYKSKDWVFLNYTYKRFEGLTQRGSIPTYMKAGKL

As for “MAESDWDTVTVLRKKGPTAAQAKSKQAILAAQRRGEDVETSKKWAAGQNKQHSITKNTAKLDRETEELHHDRVTLEVGKVIQQGRQSKGLTQKDLATKINEKPQVIADYESGRAIPNNQVLGKIERAIGLKLRGKDIGKPIEKGPRAK [EDF1]”, the melting temperature turned out to be 55.2 °C in data set [1] (cell cycle stage: G1/S) and 52.7 °C in data set [1] (cell cycle stage: mitosis). For the same substance, the figures for the thermal stability score in data set [2] (setting [5]) and in data set [2] (cell cycle stage: mitosis) were -4.76 and -6.66, respectively. For the same substance, the “solubility change mitosis (log2)” value in data set [3] came to 0.78. In addition, the “solubility in G1/S (log2)” value in data set [4] came to 0.119.
For STK38L, the melting temperature in data set [1] (cell cycle stage: G1/S) came to 50.2 °C; in data set [1] (cell cycle stage: mitosis) it was 49.3 °C. For the same substance, the thermal stability score in data set [2] (setting [5]) was 0.62; in data set [2] (cell cycle stage: mitosis), 1.53. Further, the “solubility change mitosis (log2)” value in data set [3] is -0.074. Also, in data set [4], the “solubility in G1/S (log2)” value was -0.0449.
For “MFAKAFRVKSNTAIKGSDRRKLRADVTTAFPTLGTDQVSELVPGKEELNIVKLYAHKGDAVTVYVSGGNPILFELEKNLYPTVYTLWSYPDLLPTFTTWPLVLEKLVGGADLMLPGLVMPPAGLPQVQKGDLCAISLVGNRAPVAIGVAAMSTAEMLTSGLKGRGFSVLHTYQDHLWRSGNKSSPPSIAPLALDSADLSEEKGSVQMDSTLQGDMRHMTLEGEEENGEVHQAREDKSLSEAPEDTSTRGLNQDSTDSKTLQEQMDELLQQCFLHALKCRVKKADLPLLTSTFLGSHMFSCCPEGRQLDIKKSSYKKLSKFLQQMQQEQIIQVKELSKGVESIVAVDWKHPRITSFVIPEPSPTSQTIQEGSREQPYHPPDIKPLYCVPASMTLLFQESGHKKGSFLEGSEVRTIVINYAKKNDLVDADNKNLVRLDPILCDCILEKNEQHTVMKLPWDSLLTRCLEKLQPAYQVTLPGQEPIVKKGRICPIDITLAQRASNKKVTVVRNLEAYGLDPYSVAAILQQRCQASTTVNPAPGAKDSLQVQIQGNQVHHLGWLLLEEYQLPRKHIQGLEKALKPGKKK [EIF2D]”, the melting temperature in data set [1] (cell cycle stage: G1/S) and in data set [1] (cell cycle stage: mitosis) was 48.3 °C throughout. Moreover, the figures for the thermal stability score in data set [2] (setting [5]) and in data set [2] (cell cycle stage: mitosis) were 0.861 and 1.5, respectively. For the same substance, the “solubility change mitosis (log2)” value in data set [3] is -0.0853. For the same substance, the “solubility in G1/S (log2)” value in data set [4] is 0.234.
Consider “MALDGIRMPDGCYADGTWELSVHVTDLNRDVTLRVTGEVHIGGVMLKLVEKLDVKKDWSDHALWWEKKRTWLLKTHWTLDKYGIQADAKLQFTPQHKLLRLQLPNMKYVKVKVNFSDRVFKAVSDICKTFNIRHPEELSLLKKPRDPTKKKKKKLDDQSEDEALELEGPLITPGSGSIYSSPGLYSKTMTPTYDAHDGSPLSPTSAWFGDSALSEGNPGILAVSQPITSPEILAKMFKPQALLDKAKINQGWLDSSRSLMEQDVKENEALLLRFKYYSFFDLNPKYDAIRINQLYEQAKWAILLEEIECTEEEMMMFAALQYHINKLSIMTSENHLNNSDKEVDEVDAALSDLEITLEGGKTSTILGDITSIPELADYIKVFKPKKLTLKGYKQYWCTFKDTSISCYKSKEESSGTPAHQMNLRGCEVTPDVNISGQKFNIKLLIPVAEGMNEIWLRCDNEKQYAHWMAACRLASKGKTMADSSYNLEVQNILSFLKMQHLNPDPQLIPEQITTDITPECLVSPRYLKKYKNKQITARILEAHQNVAQMSLIEAKMRFIQAWQSLPEFGITHFIARFQGGKKEELIGIAYNRLIRMDASTGDAIKTWRFSNMKQWNVNWEIKMVTVEFADEVRLSFICTEVDCKVVHEFIGGYIFLSTRAKDQNESLDEEMFYKLTSGWV [FERMT2]”, for which the melting temperature in data set [1] (cell cycle stage: G1/S) was 54.6 °C; in data set [1] (cell cycle stage: mitosis), 55.2 °C. For the same substance, the thermal stability score was -0.389 in data set [2] (setting [5]) and 0.267 in data set [2] (cell cycle stage: mitosis). The “solubility change mitosis (log2)” value in data set [3] is -0.119. Moreover, in data set [4], the “solubility in G1/S (log2)” value is -0.166.
Regarding “MDCYTANWNPLGDSAFYRKYELYSMDWDLKEELRDCLVAAAPYGGPIALLRNPWRKEKAASVRPVLDIYSASGMPLASLLWKSGPVVSLGWSAEEELLCVQEDGAVLVYGLHGDFRRHFSMGNEVLQNRVLDARIFHTEFGSGVAILTGAHRFTLSANVGDLKLRRMPEVPGLQSAPSCWTVLCQDRVAHILLAVGPDLYLLDHAACSAVTPPGLAPGVSSFLQMAVSFTYRHLALFTDTGYIWMGTASLKEKLCEFNCNIRAPPKQMVWCSRPRSKERAVVVAWERRLMVVGDAPESIQFVLDEDSYLVPELDGVRIFSRSTHEFLHEVPAASEEIFKIASMAPGALLLEAQKEYEKESQKADEYLREIQELGQLTQAVQQCIEAAGHEHQPDMQKSLLRAASFGKCFLDRFPPDSFVHMCQDLRVLNAVRDYHIGIPLTYSQYKQLTIQVLLDRLVLRRLYPLAIQICEYLRLPEVQGVSRILAHWACYKVQQKDVSDEDVARAINQKLGDTPGVSYSDIAARAYGCGRTELAIKLLEYEPRSGEQVPLLLKMKRSKLALSKAIESGDTDLVFTVLLHLKNELNRGDFFMTLRNQPMALSLYRQFCKHQELETLKDLYNQDDNHQELGSFHIRASYAAEERIEGRVAALQTAADAFYKAKNEFAAKATEDQMRLLRLQRRLEDELGGQFLDLSLHDTVTTLILGGHNKRAEQLARDFRIPDKRLWWLKLTALADLEDWEELEKFSKSKKSPIGYLPFVEICMKQHNKYEAKKYASRVGPEQKVKALLLVGDVAQAADVAIEHRNEAELSLVLSHCTGATDGATADKIQRARAQAQKK [VPS16]”, the melting temperature turned out to be 49.9 °C in data set [1] (cell cycle stage: G1/S) and 50.1 °C in data set [1] (cell cycle stage: mitosis). The thermal stability score was determined as 0.278 in data set [2] (setting [5]) and 0.681 in data set [2] (cell cycle stage: mitosis). The “solubility change mitosis (log2)” value in data set [3] is -0.12. The “solubility in G1/S (log2)” value in data set [4] is -0.206.
As to “MLSLQYPDVYRDETAVQDYHGHKICDPYAWLEDPDSEQTKAFVEAQNKITVPFLEQCPIRGLYKERMTELYDYPKYSCHFKKGKRYFYFYNTGLQNQRVLYVQDSLEGEARVFLDPNILSDDGTVALRGYAFSEDGEYFAYGLSASGSDWVTIKFMKVDGAKELPDVLERVKFSCMAWTHDGKGMFYNSYPQQDGKSDGTETSTNLHQKLYYHVLGTDQSEDILCAEFPDEPKWMGGAELSDDGRYVLLSIREGCDPVNRLWYCDLQQESSGIAGILKWVKLIDNFEGEYDYVTNEGTVFTFKTNRQSPNYRVINIDFRDPEESKWKVLVPEHEKDVLEWIACVRSNFLVLCYLHDVKNILQLHDLTTGALLKTFPLDVGSIVGYSGQKKDTEIFYQFTSFLSPGIIYHCDLTKEELEPRVFREVTVKGIDASDYQTVQIFYPSKDGTKIPMFIVHKKGIKLDGSHPAFLYGYGGFNISITPNYSVSRLIFVRHMGGILAVANIRGGGEYGETWHKGGILANKQNCFDDFQCAAEYLIKEGYTSPKRLTINGGSNGGLLVAACANQRPDLFGCVIAQVGVMDMLKFHKYTIGHAWTTDYGCSDSKQHFEWLVKYSPLHNVKLPEADDIQYPSMLLLTADHDDRVVPLHSLKFIATLQYIVGRSRKQSNPLLIHVDTKAGHGAGKPTAKVIEEVSDMFAFIARCLNVDWIP [PREP]”, the melting temperature in data set [1] (cell cycle stage: G1/S) amounted to 49.3 °C; in data set [1] (cell cycle stage: mitosis), 49.5 °C. The figures for the thermal stability score in data set [2] (setting [5]) and in data set [2] (cell cycle stage: mitosis) were -0.0879 and 0.619, respectively. The “solubility change mitosis (log2)” value in data set [3] was -0.186. For the same substance, the “solubility in G1/S (log2)” value in data set [4] is 0.00417.
Take “MSRFPAVAGRAPRRQEEGERSRDLQEERLSAVCIADREEKGCTSQEGGTTPTFPIQKQRKKIIQAVRDNSFLIVTGNTGSGKTTQLPKYLYEAGFSQHGMIGVTQPRKVAAISVAQRVAEEMKCTLGSKVGYQVRFDDCSSKETAIKYMTDGCLLKHILGDPNLTKFSVIILDEAHERTLTTDILFGLLKKLFQEKSPNRKEHLKVVVMSATMELAKLSAFFGNCPIFDIPGRLYPVREKFCNLIGPRDRENTAYIQAIVKVTMDIHLNEMAGDILVFLTGQFEIEKSCELLFQMAESVDYDYDVQDTTLDGLLILPCYGSMTTDQQRRIFLPPPPGIRKCVISTNISATSLTIDGIRYVVDGGFVKQLNHNPRLGLDILEVVPISKSEALQRSGRAGRTSSGKCFRIYSKDFWNQCMPDHVIPEIKRTSLTSVVLTLKCLAIHDVIRFPYLDPPNERLILEALKQLYQCDAIDRSGHVTRLGLSMVEFPLPPHLTCAVIKAASLDCEDLLLPIAAMLSVENVFIRPVDPEYQKEAEQRHRELAAKAGGFNDFATLAVIFEQCKSSGAPASWCQKHWIHWRCLFSAFRVEAQLRELIRKLKQQSDFPKETFEGPKHEVLRRCLCAGYFKNVARRSVGRTFCTMDGRGSPVHIHPSSALHEQETKLEWIIFHEVLVTTKVYARIVCPIRYEWVRDLLPKLHEFNAHDLSSVARREVREDARRRWTNKENVKQLKDGISKDVLKKMQRRNDDKSISDARARFLERKQQRTQDHSDTRKETG [DHX40]”: the melting temperature in data set [1] (cell cycle stage: G1/S) was 51.7 °C; in data set [1] (cell cycle stage: mitosis), 50.2 °C. The figures for the thermal stability score in data set [2] (setting [5]) and in data set [2] (cell cycle stage: mitosis) were 0.738 and 1.62, respectively. For the same substance, the “solubility change mitosis (log2)” value in data set [3] was -0.071. Also, the “solubility in G1/S (log2)” value in data set [4] is -0.176.
